Data as given in article PMC12187079 (Nature, 2024).

Columns and labels:
Assay in all cases: immunostaining of cells or tissue
Conditions in all cases: one partner purified
RaTG13 NTD-mFc = RaTG13 NTD-mFc (Bat coronavirus RaTG13 (MN996532))
SARS-CoV-2 NTD-mFc = SARS-CoV-2 NTD-mFc (SARS-CoV-2 Wuhan-Hu-1 (NC_045512))
BANAL-20-52 NTD-mFc = BANAL-20-52 NTD-mFc (Bat coronavirus BANAL-20-52/Laos/2020 …)

Measured: binding result

B1: S2L20-CVR (receptor)
VH: EVQLVESGGGVVQPGGSLRLSCAASGFTFNSYGMHWVRQAPGKGLEWVAFIRYDGGNKYYADSVKGRFTISRDNSKNTLYLQMKSLRAEDTAVYYCANLKDSRYSGSYYDYWGQGTLVTVS
VL: not shown
notes: also called HEK293T-S2L20-CVR; source: HEK293T, stably expressing (lentiviral transduction), on cells
binds: RaTG13 NTD-mFc | SARS-CoV-2 NTD-mFc | BANAL-20-52 NTD-mFc
